# Results taken from paper PMC12371199, “Identification of c‐Met on Tumor Cells as a Novel Receptor for B7‐H3 Entails Implications for Cancer Cell Stemness and Targeted Therapy” (MedComm, 2025).
# T1: purified recombinant extracellular domain of c‐Met (from Met1 to Thr932), c‐Met‐his (human, UniProt P08581 25-932)
# T1 chain: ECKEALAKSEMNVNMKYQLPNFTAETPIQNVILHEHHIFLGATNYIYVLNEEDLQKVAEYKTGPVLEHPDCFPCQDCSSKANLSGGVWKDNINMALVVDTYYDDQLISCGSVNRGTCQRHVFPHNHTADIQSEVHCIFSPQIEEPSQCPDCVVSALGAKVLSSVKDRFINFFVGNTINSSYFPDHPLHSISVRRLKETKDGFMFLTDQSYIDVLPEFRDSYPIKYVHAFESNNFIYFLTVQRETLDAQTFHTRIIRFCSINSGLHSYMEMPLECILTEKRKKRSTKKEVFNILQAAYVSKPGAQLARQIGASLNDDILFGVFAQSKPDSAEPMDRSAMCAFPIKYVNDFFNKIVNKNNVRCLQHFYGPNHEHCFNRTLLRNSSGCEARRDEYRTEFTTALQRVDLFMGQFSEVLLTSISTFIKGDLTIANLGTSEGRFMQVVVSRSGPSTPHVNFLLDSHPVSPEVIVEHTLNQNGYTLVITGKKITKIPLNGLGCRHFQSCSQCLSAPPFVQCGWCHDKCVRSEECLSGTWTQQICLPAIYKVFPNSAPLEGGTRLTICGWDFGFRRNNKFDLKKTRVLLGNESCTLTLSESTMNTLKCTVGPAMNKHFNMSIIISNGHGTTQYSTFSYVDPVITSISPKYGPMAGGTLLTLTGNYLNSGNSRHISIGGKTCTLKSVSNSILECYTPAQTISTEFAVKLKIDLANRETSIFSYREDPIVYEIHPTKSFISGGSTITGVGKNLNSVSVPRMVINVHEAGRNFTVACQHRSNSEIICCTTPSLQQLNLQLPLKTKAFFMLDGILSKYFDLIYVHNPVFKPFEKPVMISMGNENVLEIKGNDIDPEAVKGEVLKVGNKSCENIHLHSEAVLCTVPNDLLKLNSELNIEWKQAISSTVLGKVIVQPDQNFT
# Columns and labels:
# [1] = molecular target: T1, purified recombinant extracellular …; assay: SPR
# [2] = molecular target: T2, purified recombinant extracellular domain of c‐Met (from Met1 to Thr932), c‐Met‐his (human, UniProt P08581 25-932); assay: SPR; Biacore T200; c‐Met‐his immobilised on CM5 chip (10 mM sodium acetate pH 4.5); B7‐H3‐his as analyte in serial doubling concentrations up to 100 µM; 30 µL/min, 25°C; 1:1 model, global fit; conditions: both partners purified
# T2 construct: signal peptide in the construct; c-Met (hepatocyte growth factor receptor), extracellular domain, Met1 to Thr932; The limits and supplier are told for the SPR; source: bought: Sino Biological (Beijing, China)
binder,measurement,setting,value
"purified recombinant extracellular domain of B7‐H3 (from Gly27 to Thr461), B7‐H3‐his (domain or fragment, human, UniProt Q5ZPR3 27-461, looked up, B7-H3 (CD276), human, extracellular domain, Gly27 to Thr461; The limits and supplier are told for the SPR; also called soluble recombinant B7‐H3; source: bought: BioIntron (Taizhou, China)) GALEVQVPEDPVVALVGTDATLCCSFSPEPGFSLAQLNLIWQLTDTKQLVHSFAEGQDQGSAYANRTALFPDLLAQGNASLRLQRVRVADEGSFTCFVSIRDFGSAAVSLQVAAPYSKPSMTLEPNKDLRPGDTVTITCSSYQGYPEAEVFWQDGQGVPLTGNVTTSQMANEQGLFDVHSILRVVLGANGTYSCLVRNPVLQQDAHSSVTITPQRSPTGAVEVQVPEDPVVALVGTDATLRCSFSPEPGFSLAQLNLIWQLTDTKQLVHSFTEGRDQGSAYANRTALFPDLLAQGNASLRLQRVRVADEGSFTCFVSIRDFGSAAVSLQVAAPYSKPSMTLEPNKDLRPGDTVTITCSSYRGYPEAEVFWQDGQGVPLTGNVTTSQMANEQGLFDVHSVLRVVLGANGTYSCLVRNPVLQQDAHGSVTITGQPMT",koff,[1],0.000707 s⁻¹
same,Kd,[2],1.66 µM
